The results in this text go back to patent US20240392020A1 (JIANGSU HENGRUI PHARMACEUTICALS, published 2024).

The test addresses T1, HJ-1-L1.
T1 construct: also called chain 3 of HJ-1
Description: mass spectrometry of the product of four co-transfected chains of HJ-1; mispairing of heavy chain 2 with light chain 3.
Description: 0.5 μg of the product was taken for the determination of deglycosylated intact molecular weight. […] Determination of deglycosylated reduced molecular weight: 30 μg of the expressed antibody was taken and lyophilized before adding 10 μL of 8 M Gua-HCl, and the mixture was denatured in a water bath at 70° C. for 10 min. […] Then, 2 μL of 0.025 M DTT was added, and the mixture was reduced for 10 min in a water bath at 70° C. 0.5 μg of the product was taken for the determination of deglycosylated reduced molecular weight. […] Chromatographic column: Poroshell 300SB-C8 5 μm 2.1×75 mm [0420] […] Column temperature: 75° C.

B1: HJ-1-H2 (other)
heavy: EVQLVQSGAEVKKPGSSVKVSCKASGYTFSNYLIEWVRQAPGQGLEWIGVIDPGVGDTNYNENFKGRATLTADKSTSTAYIELSSLRSEDTAVYYCAREDNTGTAFDYWGQGTTVTVSSASTKGPSVFPLAPSSKSTSGGTAALGCLVKDYFPEPVTVSWNSGALTSGVHTFPAVLQSSGLYSLSSVVTVPSSSLGTQTYICNVNHKPSNTKVDKKVEPKSCDKTHTCPPCPAPEAAGGPSVFLFPPKPKDTLMISRTPEVTCVVVDVSHEDPEVKFNWYVDGVEVHNAKTKPREEQYNSTYRVVSVLTVLHQDWLNGKEYKCKVSNKALPAPIEKTISKAKGQPREPQVCTLPPSREEMTKNQVSLSCAVKGFYPSDIAVEWESNGQPENNYKTTPPVLDSDGSFFLVSKLTVDKSRWQQGNVFSCSVMHEALHNHYTQKSLSLSPGKDYKDDDDK
notes: also called chain 2 of HJ-1
B1: the binding result was “no binding”.
